Values quoted from earlier work in article PMC9412859 (World Journal of Diabetes, 2022).

Details: rats, oral

Substance | plasma exenatide level versus subcutaneous exenatide solution (functionalised NPs) | time of maximum plasma concentration (enteric-coated capsule containing pH responsive NPs)
exenatide: GLP1-RA, here delivered orally in functionalised nanoparticles | not significantly different | 
Exendin-4: GLP1-RA, here released from enteric-coated capsule containing pH responsive NPs |  | 5 h
